The experiment addresses His-MPK6 (Arabidopsis thaliana, UniProt Q39026 1-395). As to the kind of experiment: pull-down.

This is an account of results in paper PMC5499865 (Nucleic Acids Research, 2017).

Sequence of His-MPK6 (Q39026 whole entry): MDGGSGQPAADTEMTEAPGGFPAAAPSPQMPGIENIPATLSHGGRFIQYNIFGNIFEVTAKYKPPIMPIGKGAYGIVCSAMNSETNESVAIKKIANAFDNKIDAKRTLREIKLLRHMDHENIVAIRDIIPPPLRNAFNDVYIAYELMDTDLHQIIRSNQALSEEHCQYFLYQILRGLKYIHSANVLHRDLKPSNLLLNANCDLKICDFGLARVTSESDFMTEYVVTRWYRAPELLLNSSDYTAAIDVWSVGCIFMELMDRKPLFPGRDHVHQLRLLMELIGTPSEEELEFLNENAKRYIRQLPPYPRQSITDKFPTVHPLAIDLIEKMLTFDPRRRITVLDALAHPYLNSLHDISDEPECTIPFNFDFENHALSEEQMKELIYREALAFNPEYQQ

B1: GST-MYB15 (natural protein, Arabidopsis thaliana, UniProt Q9LTC4 1-285, looked up)
chain: MGRAPCCEKMGLKRGPWTPEEDQILVSFILNHGHSNWRALPKQAGLLRCGKSCRLRWMNYLKPDIKRGNFTKEEEDAIISLHQILGNRWSAIAAKLPGRTDNEIKNVWHTHLKKRLEDYQPAKPKTSNKKKGTKPKSESVITSSNSTRSESELADSSNPSGESLFSTSPSTSEVSSMTLISHDGYSNEINMDNKPGDISTIDQECVSFETFGADIDESFWKETLYSQDEHNYVSNDLEVAGLVEIQQEFQNLGSANNEMIFDSEMDFWFDVLARTGGEQDLLAGL
B1: the binding result was “binds”.
